Target: NADH-dependent methanol dehydrogenase (MeDH) from Bacillus methanolicus MGA3, internal laboratory designation 2315 (tested as purified 2315A) (Bacillus methanolicus MGA3)
Test: cell-based or functional assay

ratio of ACT to MeDH in an in vitro methanol dehydrogenase activation test (5 M methanol, 2 mM NAD, 10 µM MeDH 2315A, pH 7.4) (ACT:MeDH ratio): 10
Substance: activator protein (ACT) from Bacillus methanolicus MGA3, internal laboratory designation 2317 (tested as purified 2317A) (enzyme)
